The text below walks through data of paper PMC5862502, “Coordinated regulation of Arabidopsis microRNA biogenesis and red light signaling through Dicer-like 1 and phytochrome-interacting factor 4”.

This series concerns the target T1, PIF4-MBP (phytochrome-interacting factor 4) (Arabidopsis thaliana, UniProt Q8W2F3 1-430).
T1 sequence: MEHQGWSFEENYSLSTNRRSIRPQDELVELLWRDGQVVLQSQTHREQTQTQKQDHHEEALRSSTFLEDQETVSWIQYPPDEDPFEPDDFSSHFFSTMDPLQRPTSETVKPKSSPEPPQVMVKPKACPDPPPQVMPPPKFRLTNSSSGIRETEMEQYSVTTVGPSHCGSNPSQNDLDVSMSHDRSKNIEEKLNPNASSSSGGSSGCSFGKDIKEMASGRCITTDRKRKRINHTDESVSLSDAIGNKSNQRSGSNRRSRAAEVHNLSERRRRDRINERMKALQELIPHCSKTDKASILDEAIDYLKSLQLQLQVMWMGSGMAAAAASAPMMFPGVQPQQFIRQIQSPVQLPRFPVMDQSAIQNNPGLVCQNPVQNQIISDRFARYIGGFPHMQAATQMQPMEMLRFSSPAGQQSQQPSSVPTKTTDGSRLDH
The experiment in a line: EMSA; 1 nM labeled probe; decreasing amounts of PIF4; unlabeled same-sequence competitor in lane 8; LightShift Chemiluminescent EMSA kit buffer (composition not given), 20 ul, 30 min on ice, 1x TBE polyacrylamide gel. The settings on record: protein: recombinant; tags: MBP; chain copies: 2; label: 3' biotin on sense strand; blunt. (Mobility shift assays separate free from complexed probe on a gel.)

B1: miR160b promoter G-box fragment (dsDNA)
DNA 1: AGACACGTGTAGAAATCTTCTAAACCC
DNA 2: GGGTTTAGAAGATTTCTACACGTGTCT
B1: the binding result is reported as “binds”.
